From publication PMC13292882 (2025)
No end group written: not given here.

B1: SMARCAL peptide (peptide)
chain: LTEEQRKKIEENRQKALARRAEKLLA
modifications: also: fluorescein-labeled, position not given here
B2: Pogo-Ligase peptide (peptide)
chain: SAVLQKKITDYFHPKK
modifications: also: fluorescein-labeled, position not given here

Experiments:
[1] = target: RPA32 winged-helix domain (RPA32-WH) (amino acids 202-270) (UniProt P15927 202-270); assay: FP
[2] = target: Proliferating Cell Nuclear Antigen (PCNA) (UniProt P12004 1-261); assay: FP
Proliferating Cell Nuclear Antigen (PCNA), sequence (P12004 whole entry): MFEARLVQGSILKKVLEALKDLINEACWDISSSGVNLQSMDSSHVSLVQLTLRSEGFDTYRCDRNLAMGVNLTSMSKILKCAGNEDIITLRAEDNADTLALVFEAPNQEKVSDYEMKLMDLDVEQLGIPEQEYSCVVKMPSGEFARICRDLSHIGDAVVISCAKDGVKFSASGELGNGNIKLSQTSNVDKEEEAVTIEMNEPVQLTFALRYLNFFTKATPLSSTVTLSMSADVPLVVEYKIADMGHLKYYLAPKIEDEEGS

RPA32 winged-helix domain (RPA32-WH) (amino acids 202-270), sequence (P15927 202-270): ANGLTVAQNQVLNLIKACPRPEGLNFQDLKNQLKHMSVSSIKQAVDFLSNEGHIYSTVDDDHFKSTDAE

| Binder | Kd [1] | Kd [2] |
| --- | --- | --- |
| B1 | 13.5 µM |  |
| B2 |  | 0.051 µM |
